Test results taken from paper PMC4844822.

Target: T1, oxidized wild type Prdx6 (H2O2-treated, over-oxidized protein) (human), P30041
T1 chain: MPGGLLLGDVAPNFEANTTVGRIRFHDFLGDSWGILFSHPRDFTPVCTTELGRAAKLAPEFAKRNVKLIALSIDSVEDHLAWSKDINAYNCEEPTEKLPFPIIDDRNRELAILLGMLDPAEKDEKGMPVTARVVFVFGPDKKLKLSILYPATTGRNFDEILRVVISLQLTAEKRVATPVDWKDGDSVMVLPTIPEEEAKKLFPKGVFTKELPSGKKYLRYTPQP
Experiment: AUC
Conditions: remark: other sources report otherwise

stoichiometry N: 2
B1: oxidized wild type Prdx6 (H2O2-treated, over-oxidized protein), P30041 1-224 (natural protein)
chain: MPGGLLLGDVAPNFEANTTVGRIRFHDFLGDSWGILFSHPRDFTPVCTTELGRAAKLAPEFAKRNVKLIALSIDSVEDHLAWSKDINAYNCEEPTEKLPFPIIDDRNRELAILLGMLDPAEKDEKGMPVTARVVFVFGPDKKLKLSILYPATTGRNFDEILRVVISLQLTAEKRVATPVDWKDGDSVMVLPTIPEEEAKKLFPKGVFTKELPSGKKYLRYTPQP
modifications: here or on the partner: C47 over-oxidized (-SOOH/-SOOOH) by H2O2 treatment; C47 over-oxidized (-SOOH/-SOOOH) by H2O2 treatment
